Results taken from patent publication EP1188828A1.

How the values were obtained:
[1] = biological target: rat Reg-binding protein (rat Reg receptor, rat homologue of EXTL3/EXTR1) with N-terminal HA tag (rat); assay: cell-based or functional assay
[2] = biological target: rat Reg-binding protein (rat Reg receptor, rat homologue of EXTL3/EXTR1) with N-terminal HA tag (rat); assay: displacement of ^125I-labeled rat Reg protein from CHO cells stably expressing rat Reg receptor
[3] = biological target: rat Reg-binding protein (rat Reg receptor, rat homologue of EXTL3/EXTR1) with N-terminal HA tag (rat); assay: radioligand binding on CHO cells stably expressing HA-tagged rat Reg receptor
[4] = biological target: rat Reg-binding protein (rat Reg receptor, rat homologue of EXTL3/EXTR1) with N-terminal HA tag (rat); assay: displacement of ^125I-labeled rat Reg protein (competitor tracer) from CHO cells stably expressing rat Reg receptor

Row | Binder | BrdU incorporation of CHO cell line #3 stably expressing the Reg receptor [1] [nM] | BrdU incorporation of CHO cell line #22 stably expressing the Reg receptor [1] [nM] | Ki [2] [nM] | Kd [3] [nM] | Ki [4] [nM]
1 | rat Reg protein (Reg I) (ligand, UniProt P10758 22-165, looked up, [^125I] label by Bolton-Hunter reagent where used as the labelled tracer; unlabeled where used as competitor) QEAEEDLPSARITCPEGSNAYSSYCYYFMEDHLSWAEADLFCQNMNSGYLVSVLSQAEGNFLASLIKESGTTAANVWIGLHDPKNNRRWHWSSGSLFLYKSWDTGYPNNSNRGYCVSVTSNSGYKKWRDNSCDAQLSFVCKFKA | 4.01 | 1.11 | 1.61 | 4.41 | 
2 | human REG protein (REG Iα) (ligand, UniProt P05451 23-166, looked up) QEAQTELPQARISCPEGTNAYRSYCYYFNEDRETWVDADLYCQNMNSGNLVSVLTQAEGAFVASLIKESGTDDFNVWIGLHDPKKNRRWHWSSGSLVSYKSWGIGAPSSVNPGYCVSLTSSTGFQKWKDVPCEDKFSFVCKFKN |  |  |  |  | 7.41
